US20060073152A1 (Genentech, published 2006)
Where two headings read alike, the source gives them in different places. Positions of bridges follow the written chain, without caps; N, C: chain ends. No end group written: not given here.

What was measured:
[1] = biological target: T1, rabbit serum albumin (rabbit, UniProt P49065 25-608); assay: phage binding
T1 construct: also called Rabbit SA; BuSA

[2] = biological target: T2, rat serum albumin (rat, UniProt P02770 25-608); assay: phage binding
T2 construct: also called Rat SA; RSA
T2 sequence (P02770 25-608 limits assumed): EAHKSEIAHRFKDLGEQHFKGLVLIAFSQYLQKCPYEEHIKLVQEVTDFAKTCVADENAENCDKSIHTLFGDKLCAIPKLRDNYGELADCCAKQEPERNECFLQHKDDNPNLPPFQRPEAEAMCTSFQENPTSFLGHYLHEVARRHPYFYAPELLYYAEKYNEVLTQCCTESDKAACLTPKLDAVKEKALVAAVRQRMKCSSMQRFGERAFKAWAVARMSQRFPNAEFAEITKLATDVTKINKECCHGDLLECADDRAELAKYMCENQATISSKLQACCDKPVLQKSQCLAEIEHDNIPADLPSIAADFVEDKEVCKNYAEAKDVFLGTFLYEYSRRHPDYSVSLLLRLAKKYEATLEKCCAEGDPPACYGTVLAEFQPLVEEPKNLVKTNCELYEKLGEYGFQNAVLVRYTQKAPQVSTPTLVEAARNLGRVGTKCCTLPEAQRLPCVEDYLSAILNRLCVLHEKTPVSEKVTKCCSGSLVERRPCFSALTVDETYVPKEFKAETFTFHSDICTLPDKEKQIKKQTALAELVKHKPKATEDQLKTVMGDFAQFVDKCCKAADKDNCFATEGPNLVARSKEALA

[3] = biological target: T3, human serum albumin (human, UniProt P02768 25-609); assay: phage binding
T3 construct: also called Human SA; HuSA

[4] = biological target: T1, rabbit serum albumin; assay: phage binding; remark: listed apart in the source
[5] = biological target: T1, rabbit serum albumin; assay: peptide competition for albumin
[6] = biological target: T4, mouse serum albumin (mouse, UniProt P07724 25-608); assay: peptide competition for albumin
T4 construct: also called Mouse SA; MuSA
T4 sequence (P07724 25-608 limits assumed): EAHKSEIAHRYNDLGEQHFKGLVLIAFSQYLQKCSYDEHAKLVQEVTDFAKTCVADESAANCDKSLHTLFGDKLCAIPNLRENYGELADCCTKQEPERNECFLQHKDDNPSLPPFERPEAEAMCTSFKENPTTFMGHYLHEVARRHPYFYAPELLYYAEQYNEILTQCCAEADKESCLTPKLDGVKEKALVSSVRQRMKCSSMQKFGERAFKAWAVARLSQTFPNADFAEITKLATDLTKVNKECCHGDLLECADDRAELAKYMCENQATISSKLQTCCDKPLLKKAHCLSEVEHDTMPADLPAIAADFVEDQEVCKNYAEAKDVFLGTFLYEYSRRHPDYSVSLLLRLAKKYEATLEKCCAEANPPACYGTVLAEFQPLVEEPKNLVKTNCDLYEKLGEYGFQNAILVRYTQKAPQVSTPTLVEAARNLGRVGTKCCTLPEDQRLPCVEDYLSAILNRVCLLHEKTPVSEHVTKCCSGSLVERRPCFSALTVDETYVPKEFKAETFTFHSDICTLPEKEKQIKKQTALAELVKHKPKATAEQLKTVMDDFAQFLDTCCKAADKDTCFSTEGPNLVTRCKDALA

[7] = biological target: T2, rat serum albumin; assay: peptide competition for albumin
[8] = biological target: T3, human serum albumin; assay: phage binding; remark: listed apart in the source
[9] = biological target: T2, rat serum albumin; assay: phage binding; remark: listed apart in the source
[10] = biological target: T1, rabbit serum albumin; assay: peptide competition; head prints RSA, read as rabbit
[11] = biological target: T1, rabbit serum albumin; assay: SPR (BIAcore), albumin on the chip
[12] = biological target: T1, rabbit serum albumin; assay: SA08 peptide competition
[13] = biological target: T4, mouse serum albumin; assay: SA08 peptide competition
[14] = biological target: T2, rat serum albumin; assay: SPR (BIAcore), albumin on the chip
[15] = biological target: T3, human serum albumin; assay: SPR (BIAcore), albumin on the chip

T1 sequence (P49065 25-608 limits assumed): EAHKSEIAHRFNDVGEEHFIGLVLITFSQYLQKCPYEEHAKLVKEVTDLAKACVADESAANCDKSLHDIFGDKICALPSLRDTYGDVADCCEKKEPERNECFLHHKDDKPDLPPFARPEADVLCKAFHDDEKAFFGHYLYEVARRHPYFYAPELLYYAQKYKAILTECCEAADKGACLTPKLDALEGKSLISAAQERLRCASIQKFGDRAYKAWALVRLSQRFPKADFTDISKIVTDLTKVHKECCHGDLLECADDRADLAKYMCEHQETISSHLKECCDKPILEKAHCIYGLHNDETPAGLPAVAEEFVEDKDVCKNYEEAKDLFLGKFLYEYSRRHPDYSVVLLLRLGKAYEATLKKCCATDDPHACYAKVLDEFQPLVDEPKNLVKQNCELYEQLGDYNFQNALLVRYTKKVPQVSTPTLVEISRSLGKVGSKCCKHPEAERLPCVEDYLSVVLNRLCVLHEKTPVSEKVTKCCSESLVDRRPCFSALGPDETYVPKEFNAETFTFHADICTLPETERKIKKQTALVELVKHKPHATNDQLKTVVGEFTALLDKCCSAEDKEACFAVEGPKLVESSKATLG

Question: Which results are given for QRHPEDICLPRWGCLWGDDD (on phage) [RB-H1]?
Answer: binding result [1]: binds; binding result [2]: binds; binding result [3]: binds

Question: Does DLCDVDFCWF (on phage) [BC] bind [4]?
Answer: binds

Question: What does the source list for QRLMEDICLPRWGCLWEDDF-NH2 (disulfide 8-14 (inferred)) [SA06]?
Answer: IC50 [5]: 128 nM; IC50 [6]: 8 nM; IC50 [7]: 68 nM

Question: Which IC50 [5] does the source give for QGLIGDICLPRWGCLWGDSV-NH2 (not fully specified (bridges); cysteine pairing not given here, free peptide) [SA07] here?
Answer: 30 nM

Question: What about the IC50 [6] of the same binder?
Answer: 6 nM

Question: And the IC50 [7]?
Answer: 35 nM

Question: Does RAPESFVCYWETICFERSEQ (on phage; also called Library HB) [HB] bind [8]?
Answer: binds

Question: What does the source list for Ac-MEDICLPRWGCLWED-NH2 (not fully specified (bridges); cysteine pairing not given here, free peptide) [SA12]?
Answer: IC50 [5]: 1760 nM; IC50 [6]: 13 nM; IC50 [7]: 205 nM

Question: Does QRQMVDFCLPQWGCLWGDGF (on phage; also called Library RB) [RB] bind [4]?
Answer: binds

Question: Does QRQMVDFCLPQWGCLWGDGF (on phage; also called Library RB) [RB] bind [9]?
Answer: binds

Question: Does QRQMVDFCLPQWGCLWGDGF (on phage; also called Library RB) [RB] bind [8]?
Answer: binds

B1: RB-B11 (peptide)
peptide: QWQVMDICLPRWGCLWADEY
modifications: not fully specified (bridges); cysteine pairing not given here; also: phage-displayed
notes: on phage
Question: Does B1 bind [1]?
Answer: binds

Question: Does B1 bind [2]?
Answer: binds

Question: Does B1 bind [3]?
Answer: binds

Question: Which IC50 [5] does the source give for Ac-RLMEDICLPRWGCLWEDD-NH2 (cysteine pairing not given here, free peptide) [SA10] here?
Answer: 86 nM

Question: And the IC50 [7]?
Answer: 77 nM

Question: Which IC50 [10] does the source give for Ac-RLIEDICLPRWGCLWEDD-NH2 (cysteine pairing not given here, free peptide) [SA21] here?
Answer: 270 nM

Question: And the Kd [11]?
Answer: 320 nM

Question: And the IC50 [12]?
Answer: 270 nM

Question: And the IC50 [13]?
Answer: 7 nM

Question: What does the source list for Ac-EDICLPRWGCLWEDD-NH2 (not fully specified (bridges); cysteine pairing not given here, free peptide) [SA09]?
Answer: IC50 [5]: 1690 nM; IC50 [6]: 6 nM; IC50 [7]: 258 nM

Question: What does the source list for QWHMEDICLPQWGCLWGDVL (on phage) [RB-B5]?
Answer: binding result [1]: binds; binding result [2]: binds; binding result [3]: binds

Question: Does HSQMEDICLPRWGCLWGDEL (not fully specified (bridges); cysteine pairing not given here, on phage) [RB-B8] bind [1]?
Answer: binds

Question: Does HSQMEDICLPRWGCLWGDEL (not fully specified (bridges); cysteine pairing not given here, on phage) [RB-B8] bind [2]?
Answer: binds

Question: Does HSQMEDICLPRWGCLWGDEL (not fully specified (bridges); cysteine pairing not given here, on phage) [RB-B8] bind [3]?
Answer: binds

Question: What does the source list for LRLMDNICLPRWGCLWDDGF (not fully specified (bridges); cysteine pairing not given here, on phage) [RB-B7]?
Answer: binding result [1]: binds; binding result [2]: binds; binding result [3]: binds

Question: Does DTCVDLVRLGLECWG (on phage; also called Library RD) [RD] bind [9]?
Answer: binds

Question: Does NRQMEDICLPQWGCLWGDDF (on phage) [RB-H6] bind [1]?
Answer: binds

Question: Does NRQMEDICLPQWGCLWGDDF (on phage) [RB-H6] bind [2]?
Answer: binds

Question: Does NRQMEDICLPQWGCLWGDDF (on phage) [RB-H6] bind [3]?
Answer: binds

Question: Does GENWCDSTLMAYDLCGQVNM (on phage; also called Library BA) [BA] bind [4]?
Answer: binds

Question: How did the IC50 [10] turn out when DICLPRWGCLW-NH2 (not fully specified (bridges); cysteine pairing not given here, free peptide) [SA04] was run?
Answer: 8540 nM

Question: What about the IC50 [5] of the same binder?
Answer: 8540 nM

Question: And the IC50 [6]?
Answer: 40 nM

Question: What about the IC50 [7] of the same binder?
Answer: 787 nM

Question: Does MDELAFYCGIWECLMHQEQK (on phage) [BB] bind [4]?
Answer: binds

Question: Does EMCYFPGICWM (on phage; also called Library HC) [HC] bind [9]?
Answer: binds

Question: Does EMCYFPGICWM (on phage; also called Library HC) [HC] bind [8]?
Answer: binds

Question: Does LWAMEDICLPKWGCLWEDDF (on phage) [RB-B4] bind [1]?
Answer: binds

Question: Does LWAMEDICLPKWGCLWEDDF (on phage) [RB-B4] bind [2]?
Answer: binds

Question: Does LWAMEDICLPKWGCLWEDDF (on phage) [RB-B4] bind [3]?
Answer: binds

B2: RB-B6 (peptide)
peptide: QWQMENVCLPKWGCLWEELD
modifications: not fully specified (bridges); cysteine pairing not given here; also: phage-displayed
notes: on phage
Question: Does B2 bind [1]?
Answer: binds

Question: Does B2 bind [2]?
Answer: binds

Question: Does B2 bind [3]?
Answer: binds

Question: Does EVRSFCTDWPAEKSCKPLRG (on phage; also called Library HA) [HA] bind [8]?
Answer: binds

Question: How did the IC50 [5] turn out when MEDICLPRWGCLWED-NH2 (not fully specified (bridges); cysteine pairing not given here, free peptide) [SA05] was run?
Answer: 804 nM

Question: What about the IC50 [6] of the same binder?
Answer: 6 nM

Question: And the IC50 [7]?
Answer: 161 nM

Question: Does CGCVDVSDWDCWSECLWSHGA (on phage) [RE] bind [9]?
Answer: binds

Question: How did the IC50 [5] turn out when Ac-QGLIGDICLPRWGCLWGDSVK-NH2 (cysteine pairing not given here, free peptide) [SA08] was run?
Answer: 63 nM

Question: And the IC50 [6]?
Answer: 10 nM

Question: What about the IC50 [7] of the same binder?
Answer: 68 nM

Question: And the Kd [11]?
Answer: 108 nM

Question: What about the Kd [14] of the same binder?
Answer: 158 nM

Question: And the Kd [15]?
Answer: 858 nM

Question: What about the IC50 [13] of the same binder?
Answer: 12 nM

Question: Does KSCSELHWLLVEECLF (not fully specified (bridges); cysteine pairing not given here, on phage) [BD] bind [4]?
Answer: binds

Question: How did the IC50 [5] turn out when Ac-MEDICLPRWGCLWEDD-NH2 (not fully specified (bridges); cysteine pairing not given here, free peptide) [SA11] was run?
Answer: 1210 nM

Question: What about the IC50 [6] of the same binder?
Answer: 17 nM

Question: What about the IC50 [7] of the same binder?
Answer: 232 nM

B3: RA (peptide)
peptide: RNEDPCVVLLEMGLECWEGV
modifications: not fully specified (bridges); cysteine pairing not given here; also: phage-displayed
notes: on phage
Question: Does B3 bind [9]?
Answer: binds

Question: Does DLCLRDWGCLW (on phage; also called Library RC) [RC] bind [9]?
Answer: binds

B4: SA15 (peptide)
peptide: GEWWEDICLPRWGCLWEEED-NH2
modifications: not fully specified (bridges); printed as GEWWEDICLPRWGCLWEEED-NH2; cysteine pairing not given here
notes: free peptide
Question: B4 was tested. Which Kd [11] did it give?
Answer: 65 nM

Question: What about the Kd [14] of the same binder?
Answer: 150 nM

Question: What about the Kd [15] of the same binder?
Answer: 878 nM

Question: And the IC50 [12]?
Answer: 13 nM

Question: What about the IC50 [13] of the same binder?
Answer: 5 nM
